The values below are quoted from earlier work in article PMC4887106.

By Kd is commonly meant a measure of binding affinity in units of concentration.

The target of this data set is Histone H4K20me1/2 (Homo sapiens) (UniProt P62805).

With MBTD1 4xMBT (from UniProt Q05BQ5), the Kd is 10 µM.
